Assay results: patent US20210340201A1 (published 2021)

Columns and labels:
[1] = biological target: T1, KRAS G12V peptide on HLA-DRB1*11:01 (human); experiment: cytokine release
T1 peptide: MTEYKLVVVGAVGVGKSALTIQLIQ
Description: (§1) ELISA assays were performed by incubating 50,000 T cells in 96 well round bottom plates with 100,000 autologous B cells or B-LCL lines pulsed with specific concentrations of peptides in RPMI (GIBCO™) supplemented with 5% heat inactivated fetal bovine serum. IFN-γ in supernatants was diluted 1:1, 1:10, and 1:100 and quantitated using human IFN-γ ELISA kit (EBIOSCIENCE™) in technical duplicate or triplicate. HLA blocking experiments were carried out by adding 20 μg/ml antibody anti class I (BIOLEGEND®, cat. 311411) anti HLA DR (BIOLEGEND® clone L243, cat. 307611) or HLA-DQ (ABCAM™, clone spv-I3, cat. ab23632) to the antigen presenting cells one hour prior to adding peptide. ELISpot assays were performed by incubating 20,000-100,000 T cells with 200,000 autologous B cells pulsed with 20 μg/ml of each peptide in CTL medium using the human IFN-γ ELISPOT-PRO™ kit (MABTECH™) according to the manufacturer's instructions. For intracellular IFN-γ staining, PBMC (100,000) were incubated with autologous B cells (100,000) pulsed with the indicated peptides (20 μg/ml) in the presence of brefeldin A (GOLGIPLUG™, BD BIOSCIENCES™) and then fixed and permeabilized using the BD™ intracellular staining kit (BD BIOSCIENCES™) and analyzed using a FACSCANTO™ II flow cytometer.

[2] = biological target: T2, KRAS G12V peptide on HLA-DRB1*11:04 (human); experiment: cytokine release
T2 peptide: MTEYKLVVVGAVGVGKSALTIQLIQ
Description: as §1

B1: KRAS G12V clone 3 TCR (TCR, V domains shown)
Valpha: AQSVTQPDIHITVSEGASLELRCNYSYGATPYLFWYVQSPGQGLQLLLKYFSGDTLVQGIKGFEAEFKRSQSSFNLRKPSVHWSDAAEYFCAVGRSNSGGYQKVTFGIGTKLQVIP
Vbeta: IHQWPATLVQPVGSPLSLECTVEGTSNPNLYWYRQAAGRGLQLLFYSVGIGQISSEVPQNLSASRPQDRQFILSSKKLLLSDSGFYLCAWSALAGARDTQYFGPGTRLTVL
B1: recognises [1]; recognises [2].

B2: KRAS G12V clone 9 TCR (TCR, V domains shown)
Valpha: SVSQHNHHVILSEAASLELGCNYSYGGTVNLFWYVQYPGQHLQLLLKYFSGDPLVKGIKGFEAEFIKSKFSFNLRKPSVQWSDTAEYFCAVTVVNAGNNRKLIWGLGTSLAVNP
Vbeta: AGVIQSPRHEVTEMGQEVTLRCKPISGHDYLFWYRQTMMRGLELLIYFNNNVPIDDSGMPEDRFSAKMPNASFSTLKIQPSEPRDSAVYFCASSLGLPGTDTQYFGPGTRLTVL
B2: recognises [1]; recognises [2].
